Assay results as given in patent publication US20090155164A1 (Amgen, published 2009).
Each block holds one binder with its values, some of them ahead of it.

Key:
[1] = target: T1, monomeric human c-fms (residues 1-512)-pHis (human, UniProt P07333 20-512); experiment: Biacore, monomeric c-fms
T1 construct: Construct stated as residues 1-512; signal stated as amino acids 1-19 and left out; also called human c-fms (1-512).pHIS; monomeric c-fms
Method: The binding affinities of the somatic mutation corrected antibodies to monomeric c-fms protein were measured by surface plasmon resonance using a Biacore 3000 instrument.
The affinity of human c-fms (1-512). pHIS (Amgen) for the anti-c-fms mAbs was measured by Biacore. Experiments were conducted at 25° C. using a Biacore 3000 instrument (Biacore AB) equipped with a CM4 sensor chip. Sensor chips, amine coupling reagents (EDC (1-ethyl-3(3-dimethylaminopropyl)-carbodiimide hydrochloride), NHS (N-hydroxysuccinimide), and ethanolamine-HCl, pH 8.5), 10 mM sodium acetate, pH 5.5, HBS-EP (0.01 M HEPES pH 7.4, 0.15 M NaCl, 3 mM EDTA, 0.005% v/v Surfactant P20), and 10 mM glycine-HCl, pH 1.5 were purchased from Biacore AB. Bovine serum albumin (BSA, Bovuminar Standard Powder) was purchased from Serological Corporation. AffiniPure Goat Anti-Human IgG, Fcγ Fragment Specific was purchased from Jackson ImmunoResearch Laboratories.
(§1) Other anti-c-fms antibodies were tested in a similar manner, but changes were made to the protocol to account for differences in binding characteristics.

[2] = target: T2, human c-fms, full length, on cells (human, UniProt P07333 20-972); experiment: inhibition of 125I-CSF-1 binding to AML-5 cells; competitor: 125I-CSF-1 (summary table)
T2 construct: whole, on cells; also called CSF-1R
T2 sequence (P07333 20-972): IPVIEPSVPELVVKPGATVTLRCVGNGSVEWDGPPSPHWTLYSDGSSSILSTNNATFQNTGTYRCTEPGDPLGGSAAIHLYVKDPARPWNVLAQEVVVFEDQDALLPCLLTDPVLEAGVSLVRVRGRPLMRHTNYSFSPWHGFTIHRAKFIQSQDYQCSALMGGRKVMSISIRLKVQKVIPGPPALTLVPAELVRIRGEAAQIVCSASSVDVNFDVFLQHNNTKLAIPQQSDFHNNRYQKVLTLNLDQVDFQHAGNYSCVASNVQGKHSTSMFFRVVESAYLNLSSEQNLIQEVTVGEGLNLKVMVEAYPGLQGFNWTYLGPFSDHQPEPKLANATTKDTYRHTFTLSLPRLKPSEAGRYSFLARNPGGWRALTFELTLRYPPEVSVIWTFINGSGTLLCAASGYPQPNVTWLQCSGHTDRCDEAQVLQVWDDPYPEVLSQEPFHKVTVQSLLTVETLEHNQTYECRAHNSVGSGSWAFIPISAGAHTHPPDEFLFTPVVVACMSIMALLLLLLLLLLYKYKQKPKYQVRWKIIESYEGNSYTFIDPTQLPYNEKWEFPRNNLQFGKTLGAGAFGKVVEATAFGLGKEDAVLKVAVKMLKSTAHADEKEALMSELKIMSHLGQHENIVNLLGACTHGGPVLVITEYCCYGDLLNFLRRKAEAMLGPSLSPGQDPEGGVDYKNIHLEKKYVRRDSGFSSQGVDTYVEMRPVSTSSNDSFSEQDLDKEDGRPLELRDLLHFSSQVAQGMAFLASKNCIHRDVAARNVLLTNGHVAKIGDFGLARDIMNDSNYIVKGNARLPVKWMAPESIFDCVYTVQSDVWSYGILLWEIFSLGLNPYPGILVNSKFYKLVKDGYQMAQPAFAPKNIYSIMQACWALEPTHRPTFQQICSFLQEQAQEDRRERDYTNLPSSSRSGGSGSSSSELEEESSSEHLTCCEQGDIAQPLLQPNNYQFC
Method: (§2) A saturation radioligand binding experiment was performed in conjunction with each inhibition assay in order to determine both a KD and […] for hCSF-1 binding to c-fms expressed on the surface of AML-5 cells. Mixtures were set up in 96-well round-bottom microtiter plates with total volumes of 150 μl/well. All reagents were diluted in binding media containing 0.2% sodium azide and experiments were conducted at 4° C. to minimize potential receptor internalization and shedding.
Both assays were incubated at 4° C. on a miniorbital shaker for 4 hours, the length of time needed to reach equilibrium as determined in time course experiments. Two 60 μl aliquots of each incubation mixture were transferred to chilled 400 μl polyethylene centrifuge tubes containing 200 μl phthalate oil and spun for 1.5 minutes in a 4° C. tabletop microfuge (Sorvall,) at 9615×g to separate cell associated ¹²⁵I-hCSF-1 from free ¹²⁵I-hCSF-1. The oil tubes were cut, and each cell pellet and supernatant collected in individual 12×75 mm glass tubes and loaded on a COBRA gamma counter (Packard Instrument Company) for cpm measurements. Cpm from duplicate aliquots taken from each well were averaged for analysis.
Mean K₁ values from 2 experiments were reported (see, TABLE 13).

[3] = target: T2, human c-fms, full length, on cells; experiment: cell-based or functional assay
[4] = target: T3, cynomolgus monkey c-fms on primary bone marrow cells (cynomolgus monkey); experiment: cell-based or functional assay
[5] = target: T4, avidin-c-fms Ig-like 2 domain only fusion protein (chicken; human, UniProt P07333 85-223); experiment: FACS, biotin beads loaded with the avidin fusion protein; per the sheet's title 1 µg/mL anti C-FMS and 1 µg/mL mouse anti-human IgG Fc-gamma FITC secondary
T4 construct: Captured on biotin beads; also called Ig-like loop 2 alone (TEPG-AQIV); not shown: chicken avidin, N-terminal fusion partner from pCEP4-Avidin(N)
T4 sequence (P07333 85-223 limits assumed): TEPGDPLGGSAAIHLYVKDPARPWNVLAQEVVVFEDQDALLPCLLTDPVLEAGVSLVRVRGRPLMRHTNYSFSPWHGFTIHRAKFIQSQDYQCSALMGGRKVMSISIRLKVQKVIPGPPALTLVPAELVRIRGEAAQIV

[6] = target: T2, human c-fms, full length, on cells; experiment: cell-based or functional assay; remark: listed apart in the source
[7] = target: T1, monomeric human c-fms (residues …); experiment: Biacore (summary table)
Method: (§3) Anti-c-fms 1.2 or 1.2 SM at 0.25 μg/ml was injected over goat anti-human IgG, Fcγ in one flow cell for 2 minutes at 10 μl/min to obtain a surface density of ˜47 RUs. Another flow cell with goat anti-human IgG, Fcγ alone was used as a reference surface. Each assay started with ten cycles of buffer as the analyte to stabilize the signal. […] Each complex was allowed to associate for 2 minutes, and dissociate for 5 minutes. The surfaces were regenerated after each c-fms or buffer injection with a 30-second pulse of 10 mM glycine HCl, pH 1.5 at 100 μl/min, followed by a 30-second injection of buffer.
as §1
(§4) Data was double referenced by subtracting the reference surface responses to remove bulk refractive index changes, and then subtracting the averaged buffer blank response to remove systematic artifacts from the experimental flow cells.

[8] = target: T1, monomeric human c-fms (residues …); experiment: Biacore 3000, 25 C; mAb captured on goat anti-human IgG Fc, monomeric c-fms(1-512)-pHis analyte, 1:1 fit
Method: as §3, §1, §4

[9] = target: T2, human c-fms, full length, on cells; experiment: inhibition of 125I-hCSF-1 binding to AML-5 cells, 4 C; competitor: 125I-hCSF-1
Method: as §2
For the saturation binding assay, ¹²⁵I-hCSF-1 was serially diluted 2-fold, starting at a concentration of ˜1.7 nM and going out 12 wells to a concentration of ˜1.5 pM. Nonspecific binding was measured at a single concentration of ¹²⁵I-hCSF-1 (˜80 pM, in triplicate) in the presence of a 1,000-fold molar excess of unlabeled hCSF-1, and assumed to be a linear function of the concentration of radiolabeled hCSF-1 present.

[10] = target: T2, human c-fms, full length, on cells; experiment: cell-based or functional assay; remark: listed apart in the source
[11] = target: T3, cynomolgus monkey c-fms on primary bone …; experiment: cell-based or functional assay; remark: listed apart in the source

T1 sequence (P07333 20-512): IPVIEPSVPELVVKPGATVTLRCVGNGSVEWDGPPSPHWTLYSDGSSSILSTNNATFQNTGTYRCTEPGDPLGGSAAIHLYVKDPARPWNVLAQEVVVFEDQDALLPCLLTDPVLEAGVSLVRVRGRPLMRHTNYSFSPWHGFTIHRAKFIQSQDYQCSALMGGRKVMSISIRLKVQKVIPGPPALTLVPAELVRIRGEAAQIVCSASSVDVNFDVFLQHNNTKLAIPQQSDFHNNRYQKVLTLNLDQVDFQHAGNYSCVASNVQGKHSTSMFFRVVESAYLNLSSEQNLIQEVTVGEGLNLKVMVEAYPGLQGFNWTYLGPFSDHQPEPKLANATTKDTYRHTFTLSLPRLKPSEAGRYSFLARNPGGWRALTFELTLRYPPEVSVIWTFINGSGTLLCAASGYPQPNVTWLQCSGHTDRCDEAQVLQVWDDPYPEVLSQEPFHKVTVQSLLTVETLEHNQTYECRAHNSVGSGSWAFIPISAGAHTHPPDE

Kd [1]: 0.516 nM | Ki [2]: 0.0085 nM | AML-5 proliferation IC50 [3]: 0.027 nM | Cynomolgus Bone Marrow Proliferation IC50 [4]: 0.078 nM | binding result [5]: no binding (tested: 1 µg/mL) | antibody concentration that prevented CSF-1-induced pTyr/c-fms, 293T/c-fms cells [6]: ≥ 0.1 µg/ml | antibody concentration that reduced CSF-1-induced pTyr/c-fms to background, 293T/c-fms cells [6]: 0.1 µg/ml | Kd [7]: 0.516 nM | Kd [8]: 0.516 nM | koff [8]: 0.00198 s⁻¹ | kon [8]: 3.84e+06 M⁻¹ s⁻¹ | Ki [9]: 0.0085 nM | AML-5 bioassay IC50 [10]: 0.027 nM | Cynomolgus bone marrow bioassay IC50 [11]: 0.078 nM
B1: anti-c-fms IgG2 clone 1.2 (parent form, PT) (antibody, V domains shown)
VH: QVQLVQSGAEVKKPGASVKVSCKASGYTFTSYGISWVRQAPGQGLEWMGWISAYNGNTNYAQKLQGRVTMTTDTSTSTAYMELRSLRSDDTAVYYCARESWFGEVFFDYWGQGTLVTVSS
VL: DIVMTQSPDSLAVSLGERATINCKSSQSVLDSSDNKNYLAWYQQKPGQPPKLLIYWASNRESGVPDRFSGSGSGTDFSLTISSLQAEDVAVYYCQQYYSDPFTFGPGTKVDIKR
modifications: N-terminal glutamine cyclized to pyroglutamic acid; C-terminal lysine absent
notes: Recombinant human IgG2 kappa from COS/PKB cells (hybridoma was IgG1); also called 1.2.1; Clone 1.2 PT

Kd [1]: 0.051 nM | Ki [2]: 0.0135 nM | AML-5 proliferation IC50 [3]: 0.027 nM | Cynomolgus Bone Marrow Proliferation IC50 [4]: 0.016 nM | binding result [5]: no binding (tested: 1 µg/mL) | antibody concentration that prevented CSF-1-induced pTyr/c-fms, 293T/c-fms cells [6]: ≥ 0.1 µg/ml | antibody concentration that reduced CSF-1-induced pTyr/c-fms to background, 293T/c-fms cells [6]: 0.1 µg/ml | Kd [7]: 0.051 nM | Kd [8]: 0.051 nM | koff [8]: 0.000129 s⁻¹ | kon [8]: 2.54e+06 M⁻¹ s⁻¹ | Ki [9]: 0.0135 nM | AML-5 bioassay IC50 [10]: 0.027 nM | Cynomolgus bone marrow bioassay IC50 [11]: 0.016 nM
B2: anti-c-fms IgG2 clone 1.109 (parent form, PT) (antibody, V domains shown)
VH: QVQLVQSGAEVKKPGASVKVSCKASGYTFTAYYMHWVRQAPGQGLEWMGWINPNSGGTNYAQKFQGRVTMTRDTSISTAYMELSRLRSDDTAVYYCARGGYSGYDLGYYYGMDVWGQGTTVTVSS
VL: DIQMTQSPSSLSASVGDRVTITCQASQNISNFLDWYQQKPGKAPNLLIYDASDLDPGVPSRFSGSGSGTDFTFTISSLQPEDIATYYCQQYVSLPLTFGGGTKVEIKR
modifications: N-linked glycosylation site at Asn-28 in CDR1, reported as likely occupied; N-terminal glutamine cyclized to pyroglutamic acid; C-terminal lysine absent
notes: Recombinant human IgG2 kappa from COS/PKB cells (hybridoma was IgG1)

Kd [1]: 0.535 nM | Ki [2]: ~0.16 nM | AML-5 proliferation IC50 [3]: 0.06 nM | Cynomolgus Bone Marrow Proliferation IC50 [4]: 0.067 nM | binding result [5]: no binding (tested: 1 µg/mL) | antibody concentration that reduced CSF-1-induced pTyr/c-fms to background, 293T/c-fms cells [6]: 1 µg/ml | Kd [7]: 0.535 nM | Kd [8]: 0.535 nM | koff [8]: 0.000667 s⁻¹ | kon [8]: 1.25e+06 M⁻¹ s⁻¹ | Ki [9]: ~0.16 nM | AML-5 bioassay IC50 [10]: 0.06 nM | Cynomolgus bone marrow bioassay IC50 [11]: 0.067 nM
B3: anti-c-fms IgG2 clone 2.360 (parent form, PT) (antibody, V domains shown)
VH: QVQLVQSGAEVKKPGASVKVSCKVSGYTLTELSMHWVRQAPGKGLEWMGGFDPEDGETIYAQKFQGRVTMTEDTSTDTVYMELSSLRSEDTAVYYCATGVMITFGGVIVGHSYYGMDVWGQGTTVTVSS
VL: DIQMTQSPSSLSASVGDRVTITCRASQGINNYLAWYQQKPGKVPQLLIYVASTLQSGVPSRFSGSGSGTDFTLTISSLQPEDVATYYCQKYNSGPFTFGPGTKVDIKR
modifications: N-terminal glutamine cyclized to pyroglutamic acid; C-terminal lysine absent
notes: Recombinant human IgG2 kappa from COS/PKB cells
